# B1: Unconventional myosin-Ic (Homo sapiens), O00159-2 (parent)
# chain: MESALTARDRVGVQDFVLLENFTSEAAFIENLRRRFRENLIYTYIGPVLVSVNPYRDLQIYSRQHMERYRGVSFYEVPPHLFAVADTVYRALRTERRDQAVMISGESGAGKTEATKRLLQFYAETCPAPERGGAVRDRLLQSNPVLEAFGNAKTLRNDNSSRFGKYMDVQFDFKGAPVGGHILSYLLEKSRVVHQNHGERNFHIFYQLLEGGEEETLRRLGLERNPQSYLYLVKGQCAKVSSINDKSDWKVVRKALTVIDFTEDEVEDLLSIVASVLHLGNIHFAANEESNAQVTTENQLKYLTRLLSVEGSTLREALTHRKIIAKGEELLSPLNLEQAAYARDALAKAVYSRTFTWLVGKINRSLASKDVESPSWRSTTVLGLLDIYGFEVFQHNSFEQFCINYCNEKLQQLFIELTLKSEQEEYEAEGIAWEPVQYFNNKIICDLVEEKFKGIISILDEECLRPGEATDLTFLEKLEDTVKHHPHFLTHKLADQRTRKSLGRGEFRLLHYAGEVTYSVTGFLDKNNDLLFRNLKETMCSSKNPIMSQCFDRSELSDKKRPETVATQFKMSLLQLVEILQSKEPAYVRCIKPNDAKQPGRFDEVLIRHQVKYLGLLENLRVRRAGFAYRRKYEAFLQRYKSLCPETWPTWAGRPQDGVAVLVRHLGYKPEEYKMGRTKIFIRFPKTLFATEDALEVRRQSLATKIQAAWRGFHWRQKFLRVKRSAICIQSWWRGTLGRRKAAKRKWAAQTIRRLIRGFVLRHAPRCPENAFFLDHVRTSFLLNLRRQLPQNVLDTSWPTPPPALREASELLRELCIKNMVWKYCRSISPEWKQQLQQKAVASEIFKGKKDNYPQSVPRLFISTRLGTDEISPRVLQALGSEPIQYAVPVVKYDRKGYKPRSRQLLLTPNAVVIVEDAKVKQRIDYANLTGISVSSLSDSLFVLHVQRADNKQKGDVVLQSDHVIETLTKTALSANRVNSININQGSITFAGGPGRDGTIDFTPGSELLITKAKNGHLAVVAPRLNSR
# Variants of: B1
# Settings: with 1433b_human YWHAB
row,Variant,effect of a mutation on the interaction
1,S701A,disrupting interaction strength
2,S701E,increasing interaction strength

# — IntAct's records for PubMed 24636949
